This is an account of results in the nanobody polyreactivity screen of Harvey et al. (2022).

The nature of this series: yeast display, Sf9 membrane polyspecificity reagent, FACS + sequencing; frameworks hold sequencing errors. The essentials: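 Nanobodies came from a synthetic yeast display library in Saccharomyces cerevisiae BJ5465, induced with galactose for 36–48 hours and stained for 1 hour at 4 °C with 10% biotinylated, detergent-solubilized Sf9 membrane reagent. Cells were enriched on streptavidin microbeads and then FACS-sorted, with low and high (top ~1%) gates set on anti-HA fluorescence for expression and streptavidin fluorescence for reagent binding. Each polyreactivity label reflects the gate a clone came from. Genes were amplified by colony PCR, sequenced by MiSeq 2 × 250 and filtered by CDR length.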
As for “QVQLVESGGGLVKAGGSLRLSCAASGSTFRKYAMGWYRQAPGKEREFVAAISSSGGRTYYADSVKGRFTISRDNAKNTVYFLMNSLKPEDTAVYYCNSYFRYSNDYWGQGTQVTVSS”, the “polyreactivity (PSR sort gate)” value is listed as “high polyreactivity”. On to “QVQLVESGGGLVKAGGSLRLSCAASGSTFSRYAMGWYRQAPGKEREFVADITFRTSSTNYADSVKGRFTISRDNAKNTVYLQMNSLKPEDPAVYYCATDTQYKSYAHDYWGQGTQVTVSS”, for which the “polyreactivity (PSR sort gate)” value is “low polyreactivity”. Turning to “QVQLVESGGGLVKAGGSLRLSCAPSGSSFYYAMGWYRQAPGKERELVAAINSGGSTNYADSVKGRFTISRDNAKNTVYLQMNSLKPEDTAVYYCAADLYGYWWSFDYDYWGQGTQVTVSS”, the “polyreactivity (PSR sort gate)” value is listed as “low polyreactivity”. With “QVQLVESGGGLVKAGGSLRLSCDASGLTFNANPMGWYRQEPGKESELVAAIDWIGVSTYYADSVKGRFTISRDNAKNTVYLQMNSLKPEDTAVYYCAAEYDYNFGGNDLWYYYWGQGTQVTVSS”, the “polyreactivity (PSR sort gate)” value is reported as “high polyreactivity”. For the sequence “QVQLVESGGGLVKAGGSLRLSFAAYGSNFPRYALGWYRQATGKERELVASITSDGGSTYYADSVKGRFTISRDNAKNTVYLQMNSLKPEDTAVYYCNKVPYRGYRRYGYWGQGTQVTVSS”, the “polyreactivity (PSR sort gate)” value was “high polyreactivity”. Take “QVQLVESGGGLVKAGGSLRLSSAASGRTFKWYAMGWSRQAPGKERELVAVITGRGGSTYYADSVKGRFTISRDNAKNTVYLQMNSLKPEDTAVYSCAARGYSLVASSLYYYWGQGTQVTVSS”: the “polyreactivity (PSR sort gate)” value is “high polyreactivity”. Regarding “QVQLVESGGGLVKAGGSLRLSSDASGSISKSYAMGWYRQAPGKERELVAVITSGGNTYYADSVKGRFTISRDNAKNTVYLQMNSLKPEDTAVYYCAAKSGRGRTMDYWGQGTQVTVSS”, the “polyreactivity (PSR sort gate)” value is “high polyreactivity”.

Regarding “QVQLVESGGGLVKAGGSLRLTCAASGRIFVNYAMGWYRQAPGKEMELVAAINWSGGRTYYADSVKGRFTISRDNAKNTVYLQMNSLKPEDTAVYYCAAEWEGTYTTVPDEFNYWGQGTQVTVSS”, the “polyreactivity (PSR sort gate)” value was “high polyreactivity”. Take “QVQLVESGGGLVKAGGSLSLSCAASGFIFVNNVMGWYRQAPGKERELVAAISRRGGSTYYADSVKGRFTISRDNAKNTVYLQMNSLKPEDTAVYYCARRGPDFSWKYDYWGQGTQVTVSS”: the “polyreactivity (PSR sort gate)” value is reported as “high polyreactivity”. With “QVQLVESGGGLVKARGSLRLSFAASGSTFLVYAMGWYRQAPGKEREFVAAITWSGGYTYYADSVKGRFTISRDNAKNTVYLQMNSLKPEDTSVYYSAAEIQRTYSWEYPYEMYWGQGTQVTVSS” the entry was “high polyreactivity”. As for “QVQLVESGGGLVLAGGRLRLSCAASGRTFYVYTMGWYRQAPGKEWELVAGISYSGGSTYYADSVMGRFTISRDNAKNTVYLQMNSLKPEDTAVYYCNAELYCPYFDGKTRHGGYWGQGTQVTVSS”, the “polyreactivity (PSR sort gate)” value was “low polyreactivity”. Take “QVQLVESGGGLVLAGGSLRLSCAASGFTFFIYVMGWYRQAPGKEREFVAAISSSGDSTYYADSVKGRFTISRDNAKNTVYLQMNSLKPEDTAVYYCNAGDKFSSYWYDYWGQGTQVTVSS”: the “polyreactivity (PSR sort gate)” value was “low polyreactivity”. As for “QVQLVESGGGLVLAGGSLRLSCAASGFTFRKNAMGWYRQARGKERELVAAINSSGGSTYYADSVKGRFTISRDNAKNTVYLQMNSLKPEDTAVFYCNAVGRSLARPRGDYWGQGTQVTVSS”, the “polyreactivity (PSR sort gate)” value is “high polyreactivity”. For “QVQLVESGGGLVLAGGSLRLSCAASGNILIGNVMGWYRPAPGKERELVAAITSGGDTYYADSVKGRFTISRDNAKNTVYLQMNSLNPEDTAVYYCAADRPGQPKYEYWRQGTQVTVSS”, the “polyreactivity (PSR sort gate)” value is reported as “low polyreactivity”. With “QVQLVESGGGLVLAGGSLRLSCAASGRIFRGYAMGWYRQAPGKERELVAGITWGAGRTYYADSVKGRFTISRDNAKNTVYLQMNSLKPEDTAVYYCAAYYSQDSRRKYDYWGQGTQVSVSS”, the “polyreactivity (PSR sort gate)” value is listed as “high polyreactivity”. Consider “QVQLVESGGGLVLAGGSLRLSCAASGRIFRWYAMGWYRQAPGKERELDATISSTGGSTYYADSVKGRFTISRDNAKNTVYLQMNSLKPEDTAVYYCNAVVYGIFLYAWYDYWGQVTQVTVSS”, for which the “polyreactivity (PSR sort gate)” value was “low polyreactivity”. Regarding “QVQLVESGGGLVLAGGSLRLSCAASGRTFIGYALGWYRQAPGKERELVAAISPGGSTKYADSVKGRFTISRDNAKNTVYLQINSLKPEDNAVYYGAVGWSYYAGLRHRYYSGFDYWGQGTQVTVSS”, the “polyreactivity (PSR sort gate)” value is on record as “low polyreactivity”. Turning to “QVQLVESGGGLVLAGGSLRLSCAASGRTFKENAKGWYRQAPGKARELVAVINSGGRTYYAVSVKGSFTISRDNAKNTVYLQMNSLKPEDSAVYYCAAYSRSKESGYWGQGTQVTVSS”, the “polyreactivity (PSR sort gate)” value is on record as “high polyreactivity”. Regarding “QVQLVESGGGLVLAGGSLRLSCAASGRTYYAYTMGWYRKAPRKERELVAAISGSGSTTYYADSVKGRFTISRDNAKNTVYLQMNSLKPEDTAVFYCAADFFAGTQRTFDYWGQGTQVTVSS”, the “polyreactivity (PSR sort gate)” value is “high polyreactivity”. For “QVQLVESGGGLVLAGGSLRLSCAASGSIFGGYAMGWYRPAPGKERELVAAISSGDSTYYADSVKGRFTISRDNAKNTVYLQINSLKPEDTAVYYCAAAFFARDRKRYNYWGQGTQVTVSS”, the “polyreactivity (PSR sort gate)” value is listed as “high polyreactivity”. For “QVQLVESGGGLVLAGGSLRLSCAASGSIFKNYAMGWYGQAPGKVRELVAAITRGTYYADSVKGRFTISRDNAKNTVYLQMNSLKPEDTAVYYCNREYWGRGYYRVRGEYDYWGQGTQVTVSS”, the “polyreactivity (PSR sort gate)” value is given as “low polyreactivity”. Consider “QVQLVESGGGLVLAGGSLRLSCAASGSILTFYAMGWYRQAPGKERELVARITLIVARTNYADSVKARFTISRDNAKNTVYLQMNSLKPEDTAVYYCAKRDGDSGIGFGYWGQGTQVTVSS”, for which the “polyreactivity (PSR sort gate)” value is reported as “low polyreactivity”.

On to “QVQLVESGGGLVLAGGSLRLSCAASGSTFVQNAMGWYRQAHGKERELVAAITFGGGSTYYADSVKGRFTISRDNAKNTVYLQMNSLKPEDTAVYYCAVEVGNPQLAYSYDYWGQGTQVTVSS”, for which the “polyreactivity (PSR sort gate)” value is listed as “low polyreactivity”. Take “QVQLVESGGGLVLAGGSLRLSCAASGSTFVYYAMGWYRQAPGKERELVAAISRSGGSTYYADSVKGRFTISRDNAKNTVYLQMNSLKPEDTAVYYCAAKVRFTRRYDYWGQGTQVTVSS”: the “polyreactivity (PSR sort gate)” value is “high polyreactivity”. As to “QVQLVESGGGLVLAGGSLRLSCPASGSIFGGYAMGWYRQAHGKERELVAAISYRGASTYYADSVKGRFTISRDNAKNTVYLQMNSLKPEDTAVYYCAVAARTRARVLYGYDYWGQGTQVTVSS”, the “polyreactivity (PSR sort gate)” value is recorded as “low polyreactivity”. “QVQLVESGGGLVPAGGSLRLSCAASGFIFHGYAIGWYREAPGKEMELVAAISGTGGSTYYADSVKGRFTISRDNAKNTVYLQMNSLKPEDTAVYYCNARRVRSDRRGGDYWGQGTQVTVSS”: the “polyreactivity (PSR sort gate)” value was “high polyreactivity”.

For “QVQLVESGGGLVPAGGSLRLSCAASGLTFGRYAMRSYRQAPGKEREMVARISRSGGRTYYADSVKGRFTISRDNAKNTVYLQMNSLKPEDTAVYYCAATGSYYGGDHDYWGQGTQVTVSS”, the “polyreactivity (PSR sort gate)” value was “high polyreactivity”. Regarding “QVQLVESGGGLVPAGGSLRLSCAASGLTIYHYAMGWYRQAPGKERELVAAISYSGGSTYYADSVKGRFTISRDNAKNTVYLQMNSLKPEDTAVYYCAAYARHYGTSSLRYDYWGQGTQVTVSS”, the “polyreactivity (PSR sort gate)” value is on record as “high polyreactivity”. For “QVQLVESGGGLVPAGGSLRLSCAASGRIYARNAMGWYRKAPGKERDLVAAISSRGSSTYYADSVKGRFTISRDTAKNTVSLQMNSLKPEDTAVYYCNAYYSVYPPGYDYWGQGPQVTVSS”, the “polyreactivity (PSR sort gate)” value is “high polyreactivity”. For the sequence “QVQLVESGGGLVPAGGSLRLSCAASGRSLSRYTMGWYRQAPGKERELVAAISTSGSTYYADSVKGRFTISRDNAKNTVYLQMNSLKPEDTAVYFCNAVRRYLQYATGYAYWGQGTQVTVSS”, the “polyreactivity (PSR sort gate)” value is “high polyreactivity”. For “QVQLVESGGGLVPAGGSLRLSCAASGRTFRFNAMGWYRQAPGKERELVAAITKSSGSTDYADSVKGRFTISRDNAKNTVYLQMNSLKPEDSAVYYCAVRIFVPYYSDWSFPTQYNYWGQGTQLTVSS”, the “polyreactivity (PSR sort gate)” value is recorded as “high polyreactivity”. On to “QVQLVESGGGLVPAGGSLRLSCAGSGFIFYKYAMGWYRQAPGKERELVAAITRGGSTNYADSVKGRFTSSRDKAKNTVYLQMNSLKPEDTAVYYCAAGNRYGVRQLYQIVTRYYWGQGTQVTVSS”, for which the “polyreactivity (PSR sort gate)” value was “high polyreactivity”. Consider “QVQLVESGGGLVPAGGSLRLSWAASGRTFTRNAMGWYRQAPGKERELVAVITSSGRTNYADSVKGRVTISRDNAKNTVYLQMNSLKPEDTAVYYCNKVSARYPYPLYDYWGQGTQVTVSS”, for which the “polyreactivity (PSR sort gate)” value is “high polyreactivity”. “QVQLVESGGGLVPARGSLRLSCAASGFIFSDNAMGWYRQAPGKERELVAAITDDGDTTYYADSVKGSFTISRDNAKNTVYLQMISLKPEDTAVYYCATEIEDVEDSGPYYYVGYGYWGQGTQVTVSS”: the “polyreactivity (PSR sort gate)” value is on record as “high polyreactivity”. In the case of “QVQLVESGGGLVPARGSLRLSCAASGRIFRYYAMGWYRQAPGKERELVAAISGNGGRTSYADSVKGRFTISRDNAKITVSLQMTSLKPEDTAVYYCNAASVNGCRDFDYWGQGTQVTVSS”, the “polyreactivity (PSR sort gate)” value is on record as “high polyreactivity”. Consider “QVQLVESGGGLVPSGGSLRLSCAASGGIFYFNAMGWYRQAPGKERELVASITWSGGNTYYADSVKGRFTISRDNAKNTVSLQMNSLKPEDTAVYYSAADTQEYRPTYDYWGQGTQVTVSS”, for which the “polyreactivity (PSR sort gate)” value was “low polyreactivity”. For “QVQLVESGGGLVQAAGSLLLSCAASGSTFYYYAMGWYRQAPRKDRELVAAISRGGGSTYYADSVKGRFTISRDNAKTTVYLQMNSLKPQDTAVYYCYVSRFDSWGQGTKVTVSS”, the “polyreactivity (PSR sort gate)” value was “high polyreactivity”. With “QVQLVESGGGLVQAAGSLRLICAASGRIFDVYAMGWYRPAPGKERELVAAITWSGTSTYYADSVKGRFTISRDNAKNTVYLQMNSLKPEDTAVYYCAAEVAYTDTEYFWYYYWGQGTQVTVSS” the entry was “high polyreactivity”. With “QVQLVESGGGLVQAAGSLRLSCAASGFIFRYNVMGWYRQAPGKERELVAAISTSGGRTYFADSEKGRFTISRDNAKNTGYLQMNSLKPEDTEVYYCNAVKSEGQKVRDGYYWGQGTQVTVSS”, the “polyreactivity (PSR sort gate)” value is recorded as “high polyreactivity”.

As to “QVQLVESGGGLVQAAGSLRLSCAASGLTFGGYPMGWYRQAPGKERELVAAISRSCGSTYYADSVKGRFTISRDNAKNTVYLQMNSLKPEDTAVSYCNAGRDTKYDYWGQGTQVTVSS”, the “polyreactivity (PSR sort gate)” value is listed as “low polyreactivity”.
